US20110268740A1 (INTERCELL, published 2011)

Assays:
[1] = target: T1, M2e (SEQ ID NO:48) conjugated to RNAse A (Influenza A virus (consensus of H1, H2 …))
[2] = target: T1, M2e (SEQ ID NO:48) conjugated to RNAse A; assay: ELISA, apparent affinity, purified scFv-msFcγ2c on immobilised RNAse A-M2e

Row | Binder | Kd [1] [nM] | EC50 [2] [nM]
1 | scFv-E040-msFcγ2c (Fc fusion) DADPAQAAELVMTQSPDSLAVSLGERATINCKSSQSVLYSSNNENYLAWYQQKPGQPPKLLIYWASTRESGVPDRFSGSGSGTDFTLTINSVQAEDVAVYYCQQYFMTPITFGQGTRLEIKGGSSRSSSSGGGGSGGGGEVQLLESGGALVQPGRSLRLSCRTSGLNFGDYPINWVRQAPGKGLEWVGFIKSKSYGVTTEFAASVEGRFTISRDDSRGIAYLQMNSLKTEDTAVYYCTSSSGFLYYFDYWGQGTLVTVSSASTKGPSVTSGQAGRKLEPRVPITQNPCPPLKECPPCAAPDLLGGPSVFIFPPKIKDVLMISLSPMVTCVVVDVSEDDPDVQISWFVNNVEVHTAQTQTHREDYNSTLRVVSALPIQHQDWMSGKEFKCKVNNRALPSPIEKTISKPRGPVRAPQVYVLPPPAEEMTKKEFSLTCMITGFLPAEIAVDWTSNGRTEQNYKNTATVLDSDGSYFMYSKLRVQKSTWERGSLFACSVVHEGLHNHLTTKTISRSLGK | 0.013 | 0.0883
2 | scFv-F052-msFcγ2c (Fc fusion) DADPAQAAERVMTQSPDALAVSLGERATINCKSSQSLLYSSNNKNYLAWYQKKPGQPPKLLIYWASTRESGVPDRFSGSGSGTEFTLTINSVQAEDVAVYYCQQYFMTPITFGQGTKLEIKGGSSRSSSSGGGGSGGGGQVQLQESGGALVQPGRSLRLSCRTSGLNFGDYPINWVRQAPGKGLEWVGFIKSKSYGVTTEFAASVEGRFTISRDDSRGIAYLQMNSLKTEDTAVYYCTSSSGFLYYFDYWGQGTLVTVSSASTKGPSVTSGQAGRKLEPRVPITQNPCPPLKECPPCAAPDLLGGPSVFIFPPKIKDVLMISLSPMVTCVVVDVSEDDPDVQISWFVNNVEVHTAQTQTHREDYNSTLRVVSALPIQHQDWMSGKEFKCKVNNRALPSPIEKTISKPRGPVRAPQVYVLPPPAEEMTKKEFSLTCMITGFLPAEIAVDWTSNGRTEQNYKNTATVLDSDGSYFMYSKLRVQKSTWERGSLFACSVVHEGLHNHLTTKTISRSLGK | 0.006 | 0.0506
3 | scFv-D005-msFcγ2c (Fc fusion) DADPAQAAELVMTQSPDSLAVSLGERATINCKSSQSVLYTSNNKNYLGWYQQKPGQPPNLLIYWASTRESGVPDRFSGSGSGTDFTLTINSVQAEDVAVYYCQQYFMTPITFGQGTRLEIKGGSSRSSSSGGGGSGGGGEVQLVESGGALVQPGRSLRLSCRTSGLNFGDYPINWVRQAPGKGLEWVGFIKSKSYGVTTEFAASVEGRFTISRDDSRGIAYLQMNSLKTEDTAVYYCTSSSGFLYYFDYWGQGTLVTVSSASTKGPSVTSGQAGRKLEPRVPITQNPCPPLKECPPCAAPDLLGGPSVFIFPPKIKDVLMISLSPMVTCVVVDVSEDDPDVQISWFVNNVEVHTAQTQTHREDYNSTLRVVSALPIQHQDWMSGKEFKCKVNNRALPSPIEKTISKPRGPVRAPQVYVLPPPAEEMTKKEFSLTCMITGFLPAEIAVDWTSNGRTEQNYKNTATVLDSDGSYFMYSKLRVQKSTWERGSLFACSVVHEGLHNHLTTKTISRSLGK | 0.004 | 0.0815
